The values that follow come from US20230203469A1.

Data set [1] concerns the target T1, FRETS-VWF73 substrate, P04275.
T1 chain: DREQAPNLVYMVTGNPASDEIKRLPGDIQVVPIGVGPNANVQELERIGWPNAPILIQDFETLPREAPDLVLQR

Data set [2] addresses von Willebrand factor (VWF), substrate of the in vitro cleavage of Table 1, P04275.
In data set [3] the target is recombinant VWF (full-length, multimeric rVWF), P04275.

B1: plasma derived ADAMTS13 (pdADAMTS13) (protein)
chain: AAGGILHLELLVAVGPDVFQAHQEDTERYVLTNLNIGAELLRDPSLGAQFRVHLVKMVILTEPEGAPNITANLTSSLLSVCGWSQTINPEDDTDPGHADLVLYITRFDLELPDGNRQVRGVTQLGGACSPTWSCLITEDTGFDLGVTIAHEIGHSFGLEHDGAPGSGCGPSGHVMASDGAAPRAGLAWSPCSRRQLLSLLSAGRARCVWDPPRPQPGSAGHPPDAQPGLYYSANEQCRVAFGPKAVACTFAREHLDMCQALSCHTDPLDQSSCSRLLVPLLDGTECGVEKWCSKGRCRSLVELTPIAAVHGRWSSWGPRSPCSRSCGGGVVTRRRQCNNPRPAFGGRACVGADLQAEMCNTQACEKTQLEFMSQQCARTDGQPLRSSPGGASFYHWGAAVPHSQGDALCRHMCRAIGESFIMKRGDSFLDGTRCMPSGPREDGTLSLCVSGSCRTFGCDGRMDSQQVWDRCQVCGGDNSTCSPRKGSFTAGRAREYVTFLTVTPNLTSVYIANHRPLFTHLAVRIGGRYVVAGKMSISPNTTYPSLLEDGRVEYRVALTEDRLPRLEEIRIWGPLQEDADIQVYRRYGEEYGNLTRPDITFTYFQPKPRQAWVWAAVRGPCSVSCGAGLRWVNYSCLDQARKELVETVQCQGSQQPPAWPEACVLEPCPPYWAVGDFGPCSASCGGGLRERPVRCVEAQGSLLKTLPPARCRAGAQQPAVALETCNPQPCPARWEVSEPSSCTSAGGAGLALENETCVPGADGLEAPVTEGPGSVDEKLPAPEPCVGMSCPPGWGHLDATSAGEKAPSPWGSIRTGAQAAHVWTPAAGSCSVSCGRGLMELRFLCMDSALRVPVQEELCGLASKPGSRREVCQAVPCPARWQYKLAACSVSCGRGVVRRILYCARAHGEDDGEEILLDTQCQGLPRPEPQEACSLEPCPPRWKVMSLGPCSASCGLGTARRSVACVQLDQGQDVEVDEAACAALVRPEASVPCLIADCTYRWHVGTWMECSVSCGDGIQRRRDTCLGPQAQAPVPADFCQHLPKPVTVRGCWAGPCVGQGTPSLVPHEEAAAPGRTTATPAGASLEWSQARGLLFSPAPQPRRLLPGPQENSVQSSACGRQHLEPTGTIDMRGPGQADCAVAIGRPLGEVVTLRVLESSLNCSAGDMLLLWGRLTWRKMCRKLLDMTFSSKTNTLVVRQRCGRPGGGVLLRYGSQLAPETFYRECDMQLFGPWGEIVSPSLSPATSNAGGCRLFINVAPHARIAIHALATNMGAGTEGANASYILIRDTHSLRTTAFHGQQVLYWESESSQAEMEFSEGFLKAQASLRGQYWTLQSWVPEMQDPQSWKGKEGT
Consider B1, for which the “specific activity (FRETS U/antigen U), compared with mixed rADAMTS13 batches” value in data set [1] is “the average specific activity of the mixed rADAMTS13 batches is comparable with the specific activity of pdADAMTS13”. Besides, in data set [2], the IU VWF RCo/ml left; ADAMTS13 0.1 U/ml, 0 h (IU VWF RCo/ml) was determined as 0.75; the IU VWF RCo/ml left; ADAMTS13 0.1 U/ml, 15 seconds (IU VWF RCo/ml) is 0.38; the IU VWF RCo/ml left; ADAMTS13 0.1 U/ml, 30 seconds (IU VWF RCo/ml) is 0.37; the IU VWF RCo/ml left; ADAMTS13 0.1 U/ml, 1 minute (IU VWF RCo/ml) turned out to be 0.21. In data set [2], this protein had an IU VWF RCo/ml left; ADAMTS13 0.1 U/ml, 2 minutes (IU VWF RCo/ml) of less than 0.17; an IU VWF RCo/ml left; ADAMTS13 0.1 U/ml, 5 minutes (IU VWF RCo/ml) of less than 0.17; an IU VWF RCo/ml left; ADAMTS13 0.5 U/ml, 0 h (IU VWF RCo/ml) of 0.78; an IU VWF RCo/ml left; ADAMTS13 0.5 U/ml, 15 seconds (IU VWF RCo/ml) of less than 0.17. In data set [2], the IU VWF RCo/ml left; ADAMTS13 0.5 U/ml, 30 seconds (IU VWF RCo/ml) is less than 0.17; the IU VWF RCo/ml left; ADAMTS13 0.5 U/ml, 1 minute (IU VWF RCo/ml) is less than 0.17; the IU VWF RCo/ml left; ADAMTS13 0.5 U/ml, 2 minutes (IU VWF RCo/ml) was less than 0.17; the IU VWF RCo/ml left; ADAMTS13 0.5 U/ml, 5 minutes (IU VWF RCo/ml) was less than 0.17. In data set [2], this protein returned an IU VWF RCo/ml left; ADAMTS13 1.0 U/ml, 0 h (IU VWF RCo/ml) of 0.26; an IU VWF RCo/ml left; ADAMTS13 1.0 U/ml, 15 seconds (IU VWF RCo/ml) of less than 0.17; an IU VWF RCo/ml left; ADAMTS13 1.0 U/ml, 30 seconds (IU VWF RCo/ml) of less than 0.17; an IU VWF RCo/ml left; ADAMTS13 1.0 U/ml, 1 minute (IU VWF RCo/ml) of less than 0.17. Besides, in data set [2], the IU VWF RCo/ml left; ADAMTS13 1.0 U/ml, 2 minutes (IU VWF RCo/ml) was less than 0.17 and the IU VWF RCo/ml left; ADAMTS13 1.0 U/ml, 5 minutes (IU VWF RCo/ml) was less than 0.17.

B2: Q97 ADAMTS13 (wildtype recombinant ADAMTS13) (protein)
chain: B1 chain
As to B2, in data set [1], the Specific rADAMTS13 activity (activity per total protein by UV) turned out to be 1750 IU/mg and the rADAMTS13 Activity (FRETS VWF73) was found to be 2210 IU/mL. Moreover, the “Degradation of full-length rVWF under denaturing conditions (VWF multimer analysis)” value in data set [3] is listed as “Comparable”.
